Paper PMC8158685, “MexAB-OprM Efflux Pump Interaction with the Peptidoglycan of Escherichia coli and Pseudomonas aeruginosa” (International Journal of Molecular Sciences, 2021)

T1: OprM deleted of the flexible C-terminus residues 473-485 (OprMΔCter) (P. aeruginosa (PAO1 genome as template), UniProt Q51487 18-472)
T1 construct: signal peptide in the construct (forward primer begins at the ATG of the precursor); OprM of Pseudomonas aeruginosa PAO1 without its last 13 residues 473-485; PCR fragment NdeI-XmaI in pBAD33; also called OprM∆Cter; source: E. coli C43 deleted of acrB, pBAD33, purified (Ni-NTA, Superdex 200) in DDM
T1 sequence (looked up): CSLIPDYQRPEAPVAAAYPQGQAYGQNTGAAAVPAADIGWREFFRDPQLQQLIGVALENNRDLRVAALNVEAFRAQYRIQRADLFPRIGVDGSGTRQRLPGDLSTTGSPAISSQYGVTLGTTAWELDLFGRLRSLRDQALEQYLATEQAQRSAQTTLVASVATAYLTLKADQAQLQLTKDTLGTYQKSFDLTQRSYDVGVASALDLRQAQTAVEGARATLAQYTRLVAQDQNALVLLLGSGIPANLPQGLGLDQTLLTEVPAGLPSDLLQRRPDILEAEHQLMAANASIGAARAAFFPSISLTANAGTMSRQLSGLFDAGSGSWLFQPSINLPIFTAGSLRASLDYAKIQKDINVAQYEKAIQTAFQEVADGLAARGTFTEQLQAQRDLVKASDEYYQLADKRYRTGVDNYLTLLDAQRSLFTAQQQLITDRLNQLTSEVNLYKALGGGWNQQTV

B1: OprM (wild type, full-length) (natural protein)
chain: CSLIPDYQRPEAPVAAAYPQGQAYGQNTGAAAVPAADIGWREFFRDPQLQQLIGVALENNRDLRVAALNVEAFRAQYRIQRADLFPRIGVDGSGTRQRLPGDLSTTGSPAISSQYGVTLGTTAWELDLFGRLRSLRDQALEQYLATEQAQRSAQTTLVASVATAYLTLKADQAQLQLTKDTLGTYQKSFDLTQRSYDVGVASALDLRQAQTAVEGARATLAQYTRLVAQDQNALVLLLGSGIPANLPQGLGLDQTLLTEVPAGLPSDLLQRRPDILEAEHQLMAANASIGAARAAFFPSISLTANAGTMSRQLSGLFDAGSGSWLFQPSINLPIFTAGSLRASLDYAKIQKDINVAQYEKAIQTAFQEVADGLAARGTFTEQLQAQRDLVKASDEYYQLADKRYRTGVDNYLTLLDAQRSLFTAQQQLITDRLNQLTSEVNLYKALGGGWNQQTVTQQQTAKKEDPQA
notes: OprM, outer membrane factor of the MexAB-OprM efflux pump, Pseudomonas aeruginosa; wild type, 'OprM full-length'; The pure protein was reloaded on Ni-NTA for the detergent exchange, so the His tag was probably still on it; Natural OprM is a lipoprotein whose signal peptide is cut on export; also called OMF; outer-membrane factor channel; source: E. coli C43 deleted of acrB, pBAD33, purified …
B2: MexA (natural protein)
chain: CGKSEAPPPAQTPEVGIVTLEAQTVTLNTELPGRTNAFRIAEVRPQVNGIILKRLFKEGSDVKAGQQLYQIDPATYEADYQSAQANLASTQEQAQRYKLLVADQAVSKQQYADANAAYLQSKAAVEQARINLRYTKVLSPISGRIGRSAVTEGALVTNGQANAMATVQQLDPIYVDVTQPSTALLRLRRELASGQLERAGDNAAKVSLKLEDGSQYPLEGRLEFSEVSVDEGTGSVTIRAVFPNPNNELLPGMFVHAQLQEGVKQKAILAPQQGVTRDLKGQATALVVNAQNKVELRVIKADRVIGDKWLVTEGLNAGDKIITEGLQFVQPGVEVKTVPAKNVASAQKADAAPAKTDSKG
notes: MexA, periplasmic membrane fusion protein of the MexAB-OprM efflux pump, Pseudomonas aeruginosa; wild type; The pure protein was reloaded on Ni-NTA for the detergent exchange, so the His tag was probably still on it; Natural MexA is a lipoprotein whose signal peptide is cut; also called MFP; periplasmic membrane fusion protein; source: for one experiment exchanged into C12E8 on Ni-NTA

Legend:
[1] = biological target: the molecule itself; experiment: SEC; Superdex 200 gel filtration in TBS (20 mM Tris-HCl pH 8, 150 mM NaCl) with 0.05% DDM, last step of the purification
MexA = biological target: B2; experiment: pull-down; PG of P. aeruginosa, DDM; MexA and OprM mixed at 3:1 compared with 2:1; ratio in the retained complex from relative band intensities on SDS-PAGE; settings: both partners purified
[2] = biological target: T1, OprM deleted of the flexible C-terminus …; experiment: pull-down; purified insoluble PG of P. aeruginosa PAO1 as the pelleted matrix; MexA and OprM pre-mixed 2:1 (PG:MexA:OprM 100:2:1); 20 mM Tris-HCl pH 8.0, 300 mM NaCl, 0.05% DDM; 1 h room temperature; three washes; pellet on SDS-PAGE; proteins released by lysozyme; settings: both partners purified
[3] = biological target: B1; experiment: pull-down; purified insoluble peptidoglycan (PG) of E. coli C43 as the pelleted matrix; MexA and OprM pre-mixed 2:1 (PG:MexA:OprM 100:2:1); 20 mM Tris-HCl pH 8.0, 300 mM NaCl, 0.05% DDM; 1 h room temperature; three washes; pellet on SDS-PAGE; proteins released by lysozyme; settings: both partners purified

Row | Binder | stoichiometry N [1] | stoichiometry N (MexA) | binding result [2] | binding result [3]
1 | B1 | 3 | 2 MexA:OprM |  | 
2 | B2 |  |  | binds | binds
